Results reported in the supplement of paper PMC10567573.

B1: CDKN1A (parent)
chain: GRKRRQTSMTDFYHSKRRLIFSKR

Variants of: B1
Assay: protein stability index of a GFP-peptide fusion (GPS, HEK-293T) (PSI 1-6); higher = more stable
Conditions: c terminus: a fixed tail appended
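Also: lentivirally expressed fusions sorted by FACS into six bins by GFP to DsRed ratio, PSI derived from sequencing read proportions per bin multiplied by bin number.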

Protein stability index, by site and new letter:
S15: C 2.1; L 1.78; A 2.47; M 1.92; F 3.02
T7: Q 2.12; M 2.6; C 2.87; W 2.36; N 2.48; H 2.67; D 2.1; A 1.97; K 3.09; S 2.71; I 2.38; L 2.79; E 2.22; Y 2.65
S8: H 4.01; P 1.76; R 2.72; Y 2.35; T 3.3; M 2.68; C 3.59; E 2.74; F 3.4; Q 2.69; L 3.4; D 2.46; A 2.41; I 2.6; K 3.4
T10: G 2.85; L 2.45; P 2.48; K 2.52; F 3.46; H 2.93; R 2.39; C 3.68; Y 2.53; M 2.38; A 1.75; W 2.16; S 2.54
R5: N 2.74; H 3.17; A 2.74; L 3.53; Q 2.87; G 2.4; K 2.57; S 2.44; Y 3.17; F 2.64; I 3.03; T 3.64
M9: H 3.21; T 1.91; C 2.34; E 2.27; P 2.69; I 3.23; S 3.08; L 2.98; D 4.34; N 3.29; V 2.96; R 3.05; F 2.6; W 3.37; G 3.98; K 2.62; A 2.66
K3: V 2.83; Y 5.28; W 2.56
Q6: S 2.25; A 2.06; G 2.76; W 2.47; H 3.62; V 2.38; I 2.79; E 2.73; T 3.34; Y 2.67; M 2.04; C 3.21; D 2.1; K 2.55; R 2.4
Y13: W 2.7; M 2.33; P 3.53; F 3.27; C 3.2; H 3.22; E 3.73; V 2.79; Q 3.92; R 3.93; S 3.57; T 3.69; K 2.66; N 3.25; G 3.02; D 4.24
R4: P 3.12; C 2.73; S 2.85; A 2.39; Y 3.36; E 3.62; D 3.24; M 2.77; N 4.63; T 3.95; K 3.46; H 2.98; W 3.56; G 3.58
F12: C 2.3; V 3.38; T 2.78; H 1.61; K 2.36; E 3.15; Y 2.17; S 2.42; P 3.34; R 2.73; D 3.14; Q 2.46; A 3.27; G 3.04
D11: M 3.13; Q 2.89; A 2.37; Y 2.07; L 2.29; T 2.2; N 2.4; R 3.33; S 3.06; K 2.77; F 2.51; P 3.34; H 1.82; W 2.21; V 2.44; I 2.12
H14: W 2.08; M 3.3; F 2.96; R 3.52; S 2.34; C 2.43; L 3.02; P 4.57; I 2.72; Q 3.39; E 3.45; Y 4; N 3.62
